Test [1] deals with T1, human CD20 (human, UniProt P11836 1-297).
T1 construct: whole, on cells; Always presented on cells; also called MS4A1; CD20 WT
T1 sequence (looked up): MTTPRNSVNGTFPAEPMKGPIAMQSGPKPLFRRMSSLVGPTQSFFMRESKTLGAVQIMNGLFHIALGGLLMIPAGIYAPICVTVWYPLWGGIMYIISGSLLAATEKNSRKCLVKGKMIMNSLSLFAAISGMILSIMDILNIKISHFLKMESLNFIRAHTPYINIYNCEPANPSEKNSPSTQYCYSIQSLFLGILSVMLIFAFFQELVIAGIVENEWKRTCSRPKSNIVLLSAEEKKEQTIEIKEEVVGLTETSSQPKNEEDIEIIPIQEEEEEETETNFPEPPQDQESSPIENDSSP
Nature of the test: FACS on Daudi cells, dilution series. On the procedure:
FIG. 8. […] Binding was determined by FACS after incubation of Daudi cells with a dilution series of mAb.
10⁵ Daudi cells were plated out in a 96-well plate and incubated with IgG1-CD20 mAbs (in PBS) for 45 min on ice. After washing, bound CD20 mAbs were detected with goat-F(ab′)₂-anti-hIgG-RPE (Southern Biotech) and subsequently measured on a FACS Canto II (BD).

In test [2] the target is T1, human CD20. Kind of test: LigandTracer Green, 10 nM FITC-labeled mAb on SKBR3-CD20 cells, OneToOne fit, non-competitive dissociation. On the procedure: (§1) Kinetics analysis of interactions between the mAbs and CD20 was performed by using the LigandTracer green Technology (Ridgeview Instruments AB). 10⁶ SKBR3-CD20 cells were seeded on one side of a 10 cm culture dish (Greiner) as target cell area and association of 10 nM FITC-labeled CD20 mAb was measured. For non-competitive or competitive dissociation, labeled mAb solution was replaced by RPMI culture medium or 100 nM unlabeled mAb of the same clone, respectively. Analysis was performed using an OneToOne fitting model in TraceDrawer (Ridgeview Instruments AB).
(§2) A slow Ab off-rate might favor the formation of Ab-Clq complexes, the first component of the classical complement pathway. […] To characterize interaction kinetics and affinity of mAbs, we used the LigandTracer technology to record real-time binding and dissociation of Abs to cellular receptors.

The target of test [3] is T1, human CD20. Nature of the test: LigandTracer Green, 10 nM FITC-labeled mAb on SKBR3-CD20 cells, OneToOne fit, competitive dissociation (100 nM unlabeled mAb of the same clone). On the procedure: as §1, §2
In test [4] the target is T1, human CD20. Kind of test: binding assay, parental against L11V version, data not shown.
Test [5] addresses T1, human CD20. Kind of test: FACS on Ramos cells, dilution series.

B1: IgG1-CD20-9 (antibody, V domains shown)
VH: QAYLQQSGAELVRPGASVKMSCKASGYTFPSYNMHWVKQTPRQGLEWIGAIYPGNGDTSYNQKFKGKASQTVDKSSSTVYMQLSSLTSADSAVYFCARSRLFDSSYGWYFDVWGTGTTVTVSS
VL: QIVLSQSPAILSAYPGEKVTMTCRARSSVSYIDWYQQKAGSSPKPWIYATSNLASGVPARFSGSGSGTSYSLTISRVEAEDAATYYCQQWTSNPPTFGGGTKLEIKR
notes: Chimeric: human IgG1 constant region and human kappa light chain; also called chimerized version of m9
For the molecule B1, the binding result in test [1] is listed as “binds”.

B2: IgG1-CD20-10 (antibody, V domains shown)
VH: QAYLQQSGADLVRPGASVKMSCKASGFTFPSYNLHWVKQTPRQGLEWIGAIYPGNGDTSYNQKFKGKATLTVDKSSSTAYMQLSSLTSEDSAVYFCARSAYYGSNVWFFDVWGTGTTVTVSS
VL: QIVLSQSPAILSASPGEKVTMTCRASSSVSYMDWYQQKPGSSPKPWIYATSNLASGVPTRFSGSGSGTSYSLTISRVEAEDAATYYCQQWISNPPTFGAGTKLDLKR
notes: Chimeric: human IgG1 constant region and human kappa light chain; also called chimerized version of m10
In the case of B2, in test [1], the binding result is recorded as “binds”.

B3: m2 (mIgG2c-CD20 mAb) (antibody, V domains shown)
VH: QAYLQQSGAELVRPGASVKMSCKASGYTFTSYNMHWVKQTPRQGLEWIGGIYPGNGDTSYNQKFKGKATLTVDKSSSTAYMQLSSLTSEDSAVYFCARYYYGSSYGAMDYWGQGTSVTVSS
VL: QIVLSQSPAILSASPGEKVTMTCRASSSVSYMHWYQQKPGSSPKPWIYATSNLASGVPARFSGSGSGTSYSLTISRVEAADAATYYCHQWTFNPPTFGGGTKLEIK
modifications: FITC- or Alexa647-labelled in the kinetic assays; label sites not given
notes: Mouse IgG2c hybridoma mAb; FITC- or Alexa647-labeled in the kinetic assays
In test [2], B3 came in with a Kd of 0.21 nM, a koff of 1.77e-05 s⁻¹ and an association rate constant (kon) of 85400 M⁻¹ s⁻¹. Also, in test [3], the Kd was 0.96 nM, the koff worked out at 7.8e-05 s⁻¹ and the kon is 81700 M⁻¹ s⁻¹.

B4: m9 (mIgG2c-CD20 mAb) (antibody, V domains shown)
VH: QAYLQQSGAELVRPGASVKMSCKASGYTFPSYNMHWVKQTPRQGLEWIGAIYPGNGDTSYNQKFKGKASQTVDKSSSTVYMQLSSLTSADSAVYFCARSRLFDSSYGWYFDVWGTGTTVTVSS
VL: QIVLSQSPAILSAYPGEKVTMTCRARSSVSYIDWYQQKAGSSPKPWIYATSNLASGVPARFSGSGSGTSYSLTISRVEAEDAATYYCQQWTSNPPTFGGGTKLEIK
modifications: FITC-labelled antibody in the LigandTracer assay; the label positions are not defined.
notes: Mouse IgG2c hybridoma mAb; FITC-labeled in LigandTracer
For the molecule B4, in test [2], the Kd worked out at 0.25 nM, the koff is 1.13e-05 s⁻¹ and the kon amounted to 45700 M⁻¹ s⁻¹. Also, in test [3], binding was characterised by a dissociation constant (Kd) of 0.12 nM, the koff came out at 6.53e-06 s⁻¹ and the kon is 53900 M⁻¹ s⁻¹.

B5: m10 (mIgG2c-CD20 mAb) (antibody, V domains shown)
VH: QAYLQQSGADLVRPGASVKMSCKASGFTFPSYNLHWVKQTPRQGLEWIGAIYPGNGDTSYNQKFKGKATLTVDKSSSTAYMQLSSLTSEDSAVYFCARSAYYGSNVWFFDVWGTGTTVTVSS
VL: QIVLSQSPAILSASPGEKVTMTCRASSSVSYMDWYQQKPGSSPKPWIYATSNLASGVPTRFSGSGSGTSYSLTISRVEAEDAATYYCQQWISNPPTFGAGTKLDLK
modifications: FITC-labelled in the LigandTracer assay; label sites not given
notes: as for B4
For the molecule B5, in test [2], the Kd was found to be 0.19 nM, the koff came to 8.17e-06 s⁻¹ and the kon was found to be 44200 M⁻¹ s⁻¹. In addition, in test [3], the Kd was found to be 0.51 nM, the koff was determined as 2.82e-05 s⁻¹ and the kon was determined as 55700 M⁻¹ s⁻¹.

B6: IgG1-CD20-1 with the L11V mutation (antibody)
heavy: not shown
light: QIVLSQSPAVLFASPGEKVTMTCRARSSVSYMDWYQQKPRSSPKPWIYATSNLASGVPARFSGSGSGTSYSLTISRVEAEDAATYYCQQWTSNPPTFGSGTKLEIKRTVAAPSVFIFPPSDEQLKSGTASVVCLLNNFYPREAKVQWKVDNALQSGNSQESVTEQDSKDSTYSLSSTLTLSKADYEKHKVYACEVTHQGLSSPVTKSFNRGEC
notes: Chimeric human IgG1/kappa; leucine to valine at Kabat position 11 of the VH framework; also called IgG1-CD20-1 L11V
B6: the binding result in test [4] was “binds”.

B7: IgA1 variant of m2 (IgA-CD20-2 as IgA1) (antibody)
heavy: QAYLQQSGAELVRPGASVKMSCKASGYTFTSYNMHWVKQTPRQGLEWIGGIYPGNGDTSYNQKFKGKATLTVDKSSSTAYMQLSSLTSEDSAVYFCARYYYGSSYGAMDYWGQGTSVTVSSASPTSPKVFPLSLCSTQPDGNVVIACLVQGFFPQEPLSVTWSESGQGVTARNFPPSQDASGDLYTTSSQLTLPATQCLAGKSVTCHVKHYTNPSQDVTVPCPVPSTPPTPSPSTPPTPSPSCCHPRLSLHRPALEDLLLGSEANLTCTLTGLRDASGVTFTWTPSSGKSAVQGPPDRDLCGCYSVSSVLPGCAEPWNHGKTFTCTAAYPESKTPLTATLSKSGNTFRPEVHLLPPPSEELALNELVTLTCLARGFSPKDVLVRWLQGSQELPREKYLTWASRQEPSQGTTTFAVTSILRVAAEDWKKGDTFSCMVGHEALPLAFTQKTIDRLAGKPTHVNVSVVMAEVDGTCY
light: QIVLSQSPAILSASPGEKVTMTCRASSSVSYMHWYQQKPGSSPKPWIYATSNLASGVPARFSGSGSGTSYSLTISRVEAADAATYYCHQWTFNPPTFGGGTKLEIKRTVAAPSVFIFPPSDEQLKSGTASVVCLLNNFYPREAKVQWKVDNALQSGNSQESVTEQDSKDSTYSLSSTLTLSKADYEKHKVYACEVTHQGLSSPVTKSFNRGEC
notes: Monomeric human IgA1 constant region (pEE14.4-IgA1) and human kappa light chain; also called IgA1-CD20 mAb; IgA1-CD20 UMAB002
With B7, the binding result in test [5] was “binds”.

B8: IgA2 variant of m1 (IgA-CD20-1 as IgA2(m1)) (antibody)
heavy: QAYLQQSGAELVRPGASVKMSCKASGYTFTSYNLHWVKQTPRQGLEWIGAIYPGNGDTSYNQKFKGKATLTVDKSSSTAYMQLSRLTSEDSAVYFCARSNSYGSTYWYFDVWGTGTTVTVSSASPTSPKVFPLSLDSTPQDGNVVVACLVQGFFPQEPLSVTWSESGQNVTARNFPPSQDASGDLYTTSSQLTLPATQCPDGKSVTCHVKHYTNPSQDVTVPCPVPPPPPCCHPRLSLHRPALEDLLLGSEANLTCTLTGLRDASGATFTWTPSSGKSAVQGPPERDLCGCYSVSSVLPGCAQPWNHGETFTCTAAHPELKTPLTANITKSGNTFRPEVHLLPPPSEELALNELVTLTCLARGFSPKDVLVRWLQGSQELPREKYLTWASRQEPSQGTTTFAVTSILRVAAEDWKKGDTFSCMVGHEALPLAFTQKTIDRLAGKPTHVNVSVVMAEVDGTCY
light: QIVLSQSPAVLFASPGEKVTMTCRARSSVSYMDWYQQKPRSSPKPWIYATSNLASGVPARFSGSGSGTSYSLTISRVEAEDAATYYCQQWTSNPPTFGSGTKLEIKRTVAAPSVFIFPPSDEQLKSGTASVVCLLNNFYPREAKVQWKVDNALQSGNSQESVTEQDSKDSTYSLSSTLTLSKADYEKHKVYACEVTHQGLSSPVTKSFNRGEC
notes: Monomeric human IgA2(m1) constant region (pEE14.4-IgA2(m1)) and human kappa light chain; also called IgA2-CD20 mAb; IgA2-CD20 UMAB001
Turning to B8, the binding result in test [5] is listed as “binds”.

B9: IgA1 variant of m1 (IgA-CD20-1 as IgA1) (antibody)
heavy: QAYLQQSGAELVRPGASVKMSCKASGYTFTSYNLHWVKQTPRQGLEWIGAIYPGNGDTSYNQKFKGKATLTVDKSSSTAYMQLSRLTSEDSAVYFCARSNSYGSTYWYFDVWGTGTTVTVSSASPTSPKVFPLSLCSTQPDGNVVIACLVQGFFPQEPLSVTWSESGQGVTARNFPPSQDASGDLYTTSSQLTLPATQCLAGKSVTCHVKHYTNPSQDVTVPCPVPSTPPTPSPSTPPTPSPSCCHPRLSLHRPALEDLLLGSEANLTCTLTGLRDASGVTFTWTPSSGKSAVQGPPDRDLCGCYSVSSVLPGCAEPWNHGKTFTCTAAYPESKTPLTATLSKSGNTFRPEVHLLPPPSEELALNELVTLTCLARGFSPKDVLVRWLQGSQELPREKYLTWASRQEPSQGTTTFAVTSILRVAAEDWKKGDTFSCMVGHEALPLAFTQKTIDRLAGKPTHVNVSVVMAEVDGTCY
light: QIVLSQSPAVLFASPGEKVTMTCRARSSVSYMDWYQQKPRSSPKPWIYATSNLASGVPARFSGSGSGTSYSLTISRVEAEDAATYYCQQWTSNPPTFGSGTKLEIKRTVAAPSVFIFPPSDEQLKSGTASVVCLLNNFYPREAKVQWKVDNALQSGNSQESVTEQDSKDSTYSLSSTLTLSKADYEKHKVYACEVTHQGLSSPVTKSFNRGEC
notes: Monomeric human IgA1 constant region (pEE14.4-IgA1) and human kappa light chain; also called IgA1-CD20 mAb; IgA1-CD20 UMAB001
For B9, the binding result in test [5] was “binds”.

B10: IgA2 variant of m2 (IgA-CD20-2 as IgA2(m1)) (antibody)
heavy: QAYLQQSGAELVRPGASVKMSCKASGYTFTSYNMHWVKQTPRQGLEWIGGIYPGNGDTSYNQKFKGKATLTVDKSSSTAYMQLSSLTSEDSAVYFCARYYYGSSYGAMDYWGQGTSVTVSSASPTSPKVFPLSLDSTPQDGNVVVACLVQGFFPQEPLSVTWSESGQNVTARNFPPSQDASGDLYTTSSQLTLPATQCPDGKSVTCHVKHYTNPSQDVTVPCPVPPPPPCCHPRLSLHRPALEDLLLGSEANLTCTLTGLRDASGATFTWTPSSGKSAVQGPPERDLCGCYSVSSVLPGCAQPWNHGETFTCTAAHPELKTPLTANITKSGNTFRPEVHLLPPPSEELALNELVTLTCLARGFSPKDVLVRWLQGSQELPREKYLTWASRQEPSQGTTTFAVTSILRVAAEDWKKGDTFSCMVGHEALPLAFTQKTIDRLAGKPTHVNVSVVMAEVDGTCY
light: QIVLSQSPAILSASPGEKVTMTCRASSSVSYMHWYQQKPGSSPKPWIYATSNLASGVPARFSGSGSGTSYSLTISRVEAADAATYYCHQWTFNPPTFGGGTKLEIKRTVAAPSVFIFPPSDEQLKSGTASVVCLLNNFYPREAKVQWKVDNALQSGNSQESVTEQDSKDSTYSLSSTLTLSKADYEKHKVYACEVTHQGLSSPVTKSFNRGEC
notes: Monomeric human IgA2(m1) constant region (pEE14.4-IgA2(m1)) and human kappa light chain; also called IgA2-CD20 mAb; IgA2-CD20 UMAB002
In the case of B10, the binding result in test [5] was “binds”.

B11: IgG1-CD20-7 (antibody, V domains shown)
VH: QAYLQQSGAELVRPGASVKMSCKASGYTFASYNMHWIKQTPRQGLEWIAAIYPGNGDTSYNQKFKGKATLTVDKSSSTAYMQLSSLTSEDSAVYFCARTYYYGSSPYWSFDVWGTGTTVTVSS
VL: DIQMTQSPASLSASVGETVTVTCGASYNIYGALNWYQRKQGKSPQLLIYGATNLADGMSSRFSGSGSGRQYSLKISSLHPDDVATYYCQNVLSNPPTFGGGTKLEIKR
notes: Chimeric: human IgG1 constant region and human kappa light chain; also called chimerized version of m7
As to B11, the binding result in test [1] is reported as “binds”.

Usually Kd stands for the equilibrium constant for the complex coming apart. Broadly, the koff is the first-order rate constant of dissociation. A higher koff goes with fast dissociation. As usually defined, the kon is the rate constant with which the complex forms.
